Data reported in the RNAGym collection of RNA variant scans (doi:10.1021/acssynbio.7b00057).

B1: Pistol ribozyme (parent)
chain: GGGUCGUUGUUCCAUAAUCGCGUGGAUAUGGCACGCAAGUUUCUACCGGGCACCGUAAAUGUCCGACUGGAGCCGUUCGGGCGGCUAUAAACAGACCUCAGGCCCGAAGCGUGGCGGCACCUGCCGCCGGUGGUAAAAAAGAUCGGAAGAGCACACGUCU

Variants of: B1
Assay: aptazyme ON/OFF ratio, guanine; higher = stronger switching; co-transcriptional cleavage with and without guanine

Variant	aptazyme ON/OFF ratio
GGGUCGGAAACAGAUAAUCGCGUGGAUAUGGCACGCAAGUUUCUACCGGGCACCGUAAAUGUCCGACUGGAGCCGUUCGGGCGGCUAUAAACAGACCUCAGGCCCGAAGCGUGGCGGCACCUGCCGCCGGUGGUAAAAAAGAUCGGAAGAGCACACGUCU [U7G U8A G9A U10A U11C C12A C13G]	1.12
GGGUCGGAAACAUAUAAUCGCGUGGAUAUGGCACGCAAGUUUCUACCGGGCACCGUAAAUGUCCGACUGGAGCCGUUCGGGCGGCUAUAAACAGACCUCAGGCCCGAAGCGUGGCGGCACCUGCCGCCGGUGGUAAAAAAGAUCGGAAGAGCACACGUCU [U7G U8A G9A U10A U11C C12A C13U]	1.14
GGGUCGGAAACAAAUAAUCGCGUGGAUAUGGCACGCAAGUUUCUACCGGGCACCGUAAAUGUCCGACUGGAGCCGUUCGGGCGGCUAUAAACAGACCUCAGGCCCGAAGCGUGGCGGCACCUGCCGCCGGUGGUAAAAAAGAUCGGAAGAGCACACGUCU [U7G U8A G9A U10A U11C C12A C13A]	1.15
GGGUCGGAAAACGAUAAUCGCGUGGAUAUGGCACGCAAGUUUCUACCGGGCACCGUAAAUGUCCGACUGGAGCCGUUCGGGCGGCUAUAAACAGACCUCAGGCCCGAAGCGUGGCGGCACCUGCCGCCGGUGGUAAAAAAGAUCGGAAGAGCACACGUCU [U7G U8A G9A U10A U11A C13G]	1.06
GGGUCGGAAAACUAUAAUCGCGUGGAUAUGGCACGCAAGUUUCUACCGGGCACCGUAAAUGUCCGACUGGAGCCGUUCGGGCGGCUAUAAACAGACCUCAGGCCCGAAGCGUGGCGGCACCUGCCGCCGGUGGUAAAAAAGAUCGGAAGAGCACACGUCU [U7G U8A G9A U10A U11A C13U]	1.23
GGGUCGGAAAACAAUAAUCGCGUGGAUAUGGCACGCAAGUUUCUACCGGGCACCGUAAAUGUCCGACUGGAGCCGUUCGGGCGGCUAUAAACAGACCUCAGGCCCGAAGCGUGGCGGCACCUGCCGCCGGUGGUAAAAAAGAUCGGAAGAGCACACGUCU [U7G U8A G9A U10A U11A C13A]	1.09
GGGUCGGAAACGCAUAAUCGCGUGGAUAUGGCACGCAAGUUUCUACCGGGCACCGUAAAUGUCCGACUGGAGCCGUUCGGGCGGCUAUAAACAGACCUCAGGCCCGAAGCGUGGCGGCACCUGCCGCCGGUGGUAAAAAAGAUCGGAAGAGCACACGUCU [U7G U8A G9A U10A U11C C12G]	1.07
GGGUCGGAAACACAUAAUCGCGUGGAUAUGGCACGCAAGUUUCUACCGGGCACCGUAAAUGUCCGACUGGAGCCGUUCGGGCGGCUAUAAACAGACCUCAGGCCCGAAGCGUGGCGGCACCUGCCGCCGGUGGUAAAAAAGAUCGGAAGAGCACACGUCU [U7G U8A G9A U10A U11C C12A]	1.12
GGGUCGGAAACUCAUAAUCGCGUGGAUAUGGCACGCAAGUUUCUACCGGGCACCGUAAAUGUCCGACUGGAGCCGUUCGGGCGGCUAUAAACAGACCUCAGGCCCGAAGCGUGGCGGCACCUGCCGCCGGUGGUAAAAAAGAUCGGAAGAGCACACGUCU [U7G U8A G9A U10A U11C C12U]	1.04
GGGUCGGAAACUAAUAAUCGCGUGGAUAUGGCACGCAAGUUUCUACCGGGCACCGUAAAUGUCCGACUGGAGCCGUUCGGGCGGCUAUAAACAGACCUCAGGCCCGAAGCGUGGCGGCACCUGCCGCCGGUGGUAAAAAAGAUCGGAAGAGCACACGUCU [U7G U8A G9A U10A U11C C12U C13A]	1.07
GGGUCGGAAACUGAUAAUCGCGUGGAUAUGGCACGCAAGUUUCUACCGGGCACCGUAAAUGUCCGACUGGAGCCGUUCGGGCGGCUAUAAACAGACCUCAGGCCCGAAGCGUGGCGGCACCUGCCGCCGGUGGUAAAAAAGAUCGGAAGAGCACACGUCU [U7G U8A G9A U10A U11C C12U C13G]	1.1
GGGUCGGAAAAUAAUAAUCGCGUGGAUAUGGCACGCAAGUUUCUACCGGGCACCGUAAAUGUCCGACUGGAGCCGUUCGGGCGGCUAUAAACAGACCUCAGGCCCGAAGCGUGGCGGCACCUGCCGCCGGUGGUAAAAAAGAUCGGAAGAGCACACGUCU [U7G U8A G9A U10A U11A C12U C13A]	1.15
GGGUCGGAAAAUUAUAAUCGCGUGGAUAUGGCACGCAAGUUUCUACCGGGCACCGUAAAUGUCCGACUGGAGCCGUUCGGGCGGCUAUAAACAGACCUCAGGCCCGAAGCGUGGCGGCACCUGCCGCCGGUGGUAAAAAAGAUCGGAAGAGCACACGUCU [U7G U8A G9A U10A U11A C12U C13U]	1.19
GGGUCGGAAAAUGAUAAUCGCGUGGAUAUGGCACGCAAGUUUCUACCGGGCACCGUAAAUGUCCGACUGGAGCCGUUCGGGCGGCUAUAAACAGACCUCAGGCCCGAAGCGUGGCGGCACCUGCCGCCGGUGGUAAAAAAGAUCGGAAGAGCACACGUCU [U7G U8A G9A U10A U11A C12U C13G]	1.12
GGGUCGGAAACGAAUAAUCGCGUGGAUAUGGCACGCAAGUUUCUACCGGGCACCGUAAAUGUCCGACUGGAGCCGUUCGGGCGGCUAUAAACAGACCUCAGGCCCGAAGCGUGGCGGCACCUGCCGCCGGUGGUAAAAAAGAUCGGAAGAGCACACGUCU [U7G U8A G9A U10A U11C C12G C13A]	1.11
GGGUCGGAAACGUAUAAUCGCGUGGAUAUGGCACGCAAGUUUCUACCGGGCACCGUAAAUGUCCGACUGGAGCCGUUCGGGCGGCUAUAAACAGACCUCAGGCCCGAAGCGUGGCGGCACCUGCCGCCGGUGGUAAAAAAGAUCGGAAGAGCACACGUCU [U7G U8A G9A U10A U11C C12G C13U]	1.1
GGGUCGGAAACGGAUAAUCGCGUGGAUAUGGCACGCAAGUUUCUACCGGGCACCGUAAAUGUCCGACUGGAGCCGUUCGGGCGGCUAUAAACAGACCUCAGGCCCGAAGCGUGGCGGCACCUGCCGCCGGUGGUAAAAAAGAUCGGAAGAGCACACGUCU [U7G U8A G9A U10A U11C C12G C13G]	1.05
GGGUCGGAAACCCAUAAUCGCGUGGAUAUGGCACGCAAGUUUCUACCGGGCACCGUAAAUGUCCGACUGGAGCCGUUCGGGCGGCUAUAAACAGACCUCAGGCCCGAAGCGUGGCGGCACCUGCCGCCGGUGGUAAAAAAGAUCGGAAGAGCACACGUCU [U7G U8A G9A U10A U11C]	1.03
